In US20060270591A1, “Androgen receptor coregulators” (priority 2002, published 2006):
Like-named read-outs stand apart in the source and are kept apart here.

How the values were obtained:
PR [1] = molecular target: T1, PR (Homo sapiens, UniProt P06401); experiment: PR transcription activity, MMTV-CAT reporter (Example 1); format: cell-based; conditions: DU145 cells
T1 construct: expressed in transfected cells; host or cells: DU145, PC-3
T1 sequence (P06401 1-933): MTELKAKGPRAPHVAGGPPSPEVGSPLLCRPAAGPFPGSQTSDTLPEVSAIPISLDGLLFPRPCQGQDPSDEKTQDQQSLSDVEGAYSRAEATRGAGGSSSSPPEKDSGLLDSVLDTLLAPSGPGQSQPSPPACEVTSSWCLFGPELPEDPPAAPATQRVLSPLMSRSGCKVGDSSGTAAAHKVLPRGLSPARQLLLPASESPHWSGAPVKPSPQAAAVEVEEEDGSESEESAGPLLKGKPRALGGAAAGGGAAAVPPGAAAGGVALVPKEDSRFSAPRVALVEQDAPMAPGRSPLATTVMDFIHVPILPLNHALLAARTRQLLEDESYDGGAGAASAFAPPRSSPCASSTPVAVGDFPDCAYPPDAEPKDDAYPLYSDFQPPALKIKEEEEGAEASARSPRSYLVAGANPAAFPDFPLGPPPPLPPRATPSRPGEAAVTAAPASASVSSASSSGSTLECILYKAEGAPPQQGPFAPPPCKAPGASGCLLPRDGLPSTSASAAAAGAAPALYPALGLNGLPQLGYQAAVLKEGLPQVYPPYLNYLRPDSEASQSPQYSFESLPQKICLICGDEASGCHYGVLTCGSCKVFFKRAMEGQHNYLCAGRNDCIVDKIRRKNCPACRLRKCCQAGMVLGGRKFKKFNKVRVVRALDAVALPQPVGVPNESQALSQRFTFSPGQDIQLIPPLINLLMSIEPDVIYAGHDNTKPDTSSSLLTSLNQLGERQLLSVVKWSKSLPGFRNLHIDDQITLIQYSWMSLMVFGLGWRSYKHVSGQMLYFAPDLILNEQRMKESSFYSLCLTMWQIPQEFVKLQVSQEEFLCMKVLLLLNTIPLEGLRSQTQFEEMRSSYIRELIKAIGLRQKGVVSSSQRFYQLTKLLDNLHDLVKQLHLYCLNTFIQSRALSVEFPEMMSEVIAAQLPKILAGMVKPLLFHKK
Experimental: (§1) 366. Human prostate cancer DU145 or PC3 cells, or human lung carcinoma cells NCI H1299 were grown in Dulbecco's minimal essential medium (DMEM) containing penicillin (25 U/ml), streptomycin (25˜g/ml), and 5% fetal calf serum (FCS). One hour before transfection, the medium was changed to DMEM with 5% charcoal-stripped FCS. Phenol red-free and serum-free media were used on the experiments employing E2 or TGF-β, respectively. A β-galactosidase expression plasmid, pCMV-β-gal, was used as an internal control for transfection efficiency.
(§2) 367. Cells were transfected using the calcium phosphate technique (Yeh, et al. Molec. Endocrinol. 8:77-88, 1994). The medium was changed 24 hr posttransfection and the cells treated with either steroid hormones or hydroxyflutamide, and cultured for an additional 24 hr. Cells were harvested and assayed for CAT activity after the cell lysates were normalized by using β-galactosidaseas an internal control. Chloramphenicol acetyltransferase (CA) activity was visualized by PhosphorImager (Molecular Dynamics) and quantitated by ImageQuant software (Molecular Dynamics).

ER = molecular target: T2, ER (Homo sapiens, UniProt P03372); experiment: ER transcription activity, ERE-CAT reporter (Example 1); format: cell-based; conditions: DU145 cells
T2 construct: expressed in transfected cells; host or cells: DU145
T2 sequence (P03372 1-595): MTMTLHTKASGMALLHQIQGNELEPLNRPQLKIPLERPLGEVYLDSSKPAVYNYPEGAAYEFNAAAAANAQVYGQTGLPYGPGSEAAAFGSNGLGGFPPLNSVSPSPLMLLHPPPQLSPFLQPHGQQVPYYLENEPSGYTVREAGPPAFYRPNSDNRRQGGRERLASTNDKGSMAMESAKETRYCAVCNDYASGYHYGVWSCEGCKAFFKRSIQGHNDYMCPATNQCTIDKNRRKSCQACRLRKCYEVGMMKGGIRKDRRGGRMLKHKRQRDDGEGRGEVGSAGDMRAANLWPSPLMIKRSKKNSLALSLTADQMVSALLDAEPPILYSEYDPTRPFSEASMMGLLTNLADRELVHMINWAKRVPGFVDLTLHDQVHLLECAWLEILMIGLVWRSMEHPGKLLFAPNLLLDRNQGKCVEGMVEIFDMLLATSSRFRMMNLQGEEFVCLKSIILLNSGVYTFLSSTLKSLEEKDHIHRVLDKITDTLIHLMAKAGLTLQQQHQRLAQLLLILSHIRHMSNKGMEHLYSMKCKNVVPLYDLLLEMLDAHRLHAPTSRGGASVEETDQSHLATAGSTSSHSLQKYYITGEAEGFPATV
Experimental: as §1, §2

PR [2] = molecular target: T1, PR; conditions: previous studies; cited from earlier work
GR = molecular target: T3, GR (Homo sapiens, UniProt P04150); experiment: GR transcription activity, MMTV-CAT reporter (Example 1); format: cell-based; set-up: expressed in transfected cells; host or cells: DU145; conditions: DU145 cells
T3 sequence (P04150 1-777): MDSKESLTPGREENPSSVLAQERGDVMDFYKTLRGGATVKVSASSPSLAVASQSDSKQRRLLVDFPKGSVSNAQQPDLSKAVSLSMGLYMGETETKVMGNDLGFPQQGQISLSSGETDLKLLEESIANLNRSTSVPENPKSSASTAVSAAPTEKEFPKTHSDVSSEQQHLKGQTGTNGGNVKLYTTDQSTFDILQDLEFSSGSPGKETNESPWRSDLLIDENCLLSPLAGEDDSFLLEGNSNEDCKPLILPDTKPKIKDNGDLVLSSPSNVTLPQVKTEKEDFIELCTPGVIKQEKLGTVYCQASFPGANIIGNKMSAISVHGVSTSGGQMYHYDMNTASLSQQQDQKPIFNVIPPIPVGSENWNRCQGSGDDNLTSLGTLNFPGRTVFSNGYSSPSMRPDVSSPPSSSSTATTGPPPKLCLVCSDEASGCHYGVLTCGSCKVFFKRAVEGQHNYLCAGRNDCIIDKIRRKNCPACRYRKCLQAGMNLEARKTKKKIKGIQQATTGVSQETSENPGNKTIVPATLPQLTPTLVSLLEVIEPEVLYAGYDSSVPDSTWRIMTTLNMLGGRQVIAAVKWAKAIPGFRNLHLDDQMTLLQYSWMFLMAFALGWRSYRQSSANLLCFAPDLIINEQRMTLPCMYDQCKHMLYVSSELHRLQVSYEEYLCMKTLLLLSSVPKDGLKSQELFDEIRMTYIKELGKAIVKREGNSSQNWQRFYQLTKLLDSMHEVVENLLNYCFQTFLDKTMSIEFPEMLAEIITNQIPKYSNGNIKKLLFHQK
Experimental: as §1, §2

B1: ARA54: 54 kDa protein that interacts with AR in an androgen-dependent manner; AR coactivator (protein)
chain: MSSEDREAQEDELLALASIYDGDEFRKAESVQGGETRIYLDLPQNFKIFVSGNSNECLQNSGFEYTICFLPPLVLNFELPPDYPSSSPPSFTLSGKWLSPTQLSALCKHLDNLWEEHRGSVVLFAWMQFLKEETLAYLNIVSPFELKIGSQKKVQRRTAQASPNTELDFGGAAGSDVDQEEIVDERAVQDVESLSNLIQEILDFDQAQQIKCFNSKLFLCSICFCEKLGSECMYFLECRHVYCKACLKDYFEIQIRDGQVQCLNCPEPKCPSVATPGQVKELVEAELFARYDRLLLQSSLDLMADVVYCPRPCCQLPVMQEPGCTMGICSSCNFAFCTLCRLTYHGVSPCKVTAEKLMDLRNEYLQADEANKRLLDQRYGKRVIQKALEEMESKEWLEKNSKSCPCCGTPIEKLDGCNKMTCTGCMQYFCWICMGSLSRANPYKHFNDPGSPCFNRLFYAVDVDDDIWEDEVED
enhancement of the transcription activity of PR (PR [1]): 3-5 fold
effect on ER transcription activity (ER): less than 2 fold
enhancement of the transcription activity of PR (PR [2]): up to 4 fold
effect on GR transcription activity (GR): less than 2 fold
